This experiment deals with T1, Thrombospondin-1 (Abnova) (UniProt P07996 19-1170).
T1 construct: Thrombospondin-1 bought from Abnova; No catalogue number is printed; the product may be a partial or tagged recombinant protein; also called TSP-1; free TSP-1; source: bought: Abnova
The experiment can be described thus: SPR; Biacore 3000; AMEL-2 immobilised on a CM5 chip by amine coupling (10,000 RU); running buffer 10 mM Na2HPO4, 150 mM NaCl, pH 7.4; analytes injected at 10 μl/min for 3 min, dissociation 600 s, no regeneration; 1:1 Langmuir model. The following applies: both partners purified.

T1 sequence (P07996 19-1170): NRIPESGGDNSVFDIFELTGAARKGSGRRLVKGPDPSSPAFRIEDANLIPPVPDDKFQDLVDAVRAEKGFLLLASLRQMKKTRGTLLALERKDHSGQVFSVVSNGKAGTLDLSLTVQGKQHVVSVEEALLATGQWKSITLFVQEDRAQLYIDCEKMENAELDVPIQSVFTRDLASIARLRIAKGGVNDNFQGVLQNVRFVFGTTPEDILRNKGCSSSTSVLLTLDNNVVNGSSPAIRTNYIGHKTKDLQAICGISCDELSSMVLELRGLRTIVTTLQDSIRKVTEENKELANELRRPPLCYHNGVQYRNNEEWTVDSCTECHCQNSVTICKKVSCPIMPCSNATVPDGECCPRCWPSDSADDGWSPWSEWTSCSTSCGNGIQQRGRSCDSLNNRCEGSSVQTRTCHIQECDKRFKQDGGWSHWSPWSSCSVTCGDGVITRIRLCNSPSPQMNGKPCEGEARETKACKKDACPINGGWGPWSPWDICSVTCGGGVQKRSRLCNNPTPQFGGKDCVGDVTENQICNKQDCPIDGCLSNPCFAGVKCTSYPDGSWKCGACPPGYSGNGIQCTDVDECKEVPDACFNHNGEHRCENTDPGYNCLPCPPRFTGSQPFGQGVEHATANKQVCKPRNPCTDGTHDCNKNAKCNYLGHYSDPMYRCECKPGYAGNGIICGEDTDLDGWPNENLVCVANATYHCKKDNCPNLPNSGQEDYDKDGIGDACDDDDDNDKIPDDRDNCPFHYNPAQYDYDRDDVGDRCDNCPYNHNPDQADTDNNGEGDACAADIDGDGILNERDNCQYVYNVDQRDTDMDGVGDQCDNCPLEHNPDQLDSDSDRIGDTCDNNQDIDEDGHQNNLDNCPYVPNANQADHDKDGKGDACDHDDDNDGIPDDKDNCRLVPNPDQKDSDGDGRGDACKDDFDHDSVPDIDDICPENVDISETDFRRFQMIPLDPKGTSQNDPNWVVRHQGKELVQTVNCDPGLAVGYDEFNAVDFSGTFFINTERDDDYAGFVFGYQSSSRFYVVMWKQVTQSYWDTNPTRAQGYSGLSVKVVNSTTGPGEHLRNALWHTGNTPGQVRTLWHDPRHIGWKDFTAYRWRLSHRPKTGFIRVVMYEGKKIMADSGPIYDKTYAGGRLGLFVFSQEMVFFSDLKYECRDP

B1: human amelogenin isoform 2 (AMELX isoform II), recombinant (natural protein)
chain: MGTWILFACLLGAAFAMPVLTPLKWYQSIRPPYPSYGYEPMGGWLHHQIIPVLSQQHPPTHTLQPHHHIPVVPAQQPVIPQQPMMPVPGQHSMTPIQHHQPNLPPPAQQPYQPQPVQPQPHQPMQPQPPVHPMQPLPPQPPLPPMFPMQPLPPMLPDLTLEAWPSTDKTKREEVD
Take B1: the affinity, expressed as Kd, was 878 ± 125 nM.

These data come from article PMC5635807, “Identification of Trombospondin-1 as a Novel Amelogenin Interactor by Functional Proteomics” (Frontiers in Chemistry, 2017).
